Reference: PMC9472616 (2022)

Target: SARS-CoV-2 WT RBD (SARS-CoV-2, UniProt P0DTC2 319-541)
Experiment: SPR

B1: CB6 (antibody, V domains shown)
VH: EVQLVESGGGLVQPGGSLRLSCAASGFTVSSNYMSWVRQAPGKGLEWVSVIYSGGSTFYADSVKGRFTISRDNSMNTLFLQMNSLRAEDTAVYYCARVLPMYGDYLDYWGQGTLVTVSS
VL: not shown
Kd: 30 nM

B2: BD-368 (antibody, V domains shown)
VH: EVQLLESGGGVVQPGGSLRLSCAASGFAFTTYAMNWVRQAPGRGLEWVSAISDGGGSAYYADSVKGRFTISRDNSKNTLYLQMNSLRAEDTAVYYCAKTRGRGLYDYVWGSKDYWGQGTLVTVSS
VL: not shown
Kd: 3.47 nM

B3: REGN10933 (antibody, V domains shown)
VH: QVQLVESGGGLVKPGGSLRLSCAASGFTFSDYYMSWIRQAPGKGLEWVSYITYSGSTIYYADSVKGRFTISRDNAKSSLYLQMNSLRAEDTAVYYCARDRGTTMVPFDYWGQGTLVTVSS
VL: DIQMTQSPSSLSASVGDRVTITCQASQDITNYLNWYQQKPGKAPKLLIYAASNLETGVPSRFSGSGSGTDFTFTISGLQPEDIATYYCQQYDNLPLTFGGGTKVEIK
Kd: 1.6 nM

B4: REGN10987 (antibody, V domains shown)
VH: QVQLVESGGGVVQPGRSLRLSCAASGFTFSNYAMYWVRQAPGKGLEWVAVISYDGSNKYYADSVKGRFTISRDNSKNTLYLQMNSLRTEDTAVYYCASGSDYGDYLLVYWGQGTLVTVSS
VL: QSALTQPASVSGSPGQSITISCTGTSSDVGGYNYVSWYQQHPGKAPKLMIYDVSKRPSGVSNRFSGSKSGNTASLTISGLQSEDEADYYCNSLTSISTWVFGGGTKLTVL
Kd: 2.22 nM
